Test results from patent US6403764.

What was measured:
[1] = target: T1, human IGFBP-1 (human), P08833; assay: phage ELISA value repeated from Table I; IC50mut/IC50 G1S-A70V; settings: remark: other sources report otherwise
T1 chain: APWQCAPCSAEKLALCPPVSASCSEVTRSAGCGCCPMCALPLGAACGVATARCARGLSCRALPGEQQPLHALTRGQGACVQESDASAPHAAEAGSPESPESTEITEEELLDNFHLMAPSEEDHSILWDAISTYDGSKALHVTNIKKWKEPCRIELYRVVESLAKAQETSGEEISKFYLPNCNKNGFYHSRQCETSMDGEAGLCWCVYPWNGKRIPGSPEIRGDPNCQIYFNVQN

[2] = target: T1, human IGFBP-1 (human), P08833; assay: competitive phage ELISA; IC50mut/IC50 G1S-A70V; settings: remark: other sources report otherwise
[3] = target: T2, recombinant human IGFBP-3 (human, UniProt P17936 28-291); assay: competitive phage ELISA, IGFBP-3-coated wells, soluble IGFBP-3 competitor (FIG. 3B)
T2 construct: mature; Secreted recombinant protein
Experimental: Phage particles were harvested and resuspended in PBS buffer as described in Lowman, H. B., "Phage Display of Peptide Libraries on Protein Scaffolds," in Cabilly, S. (ed.), *Combinatorial Peptide Library Protocols* (Humana Press Inc.: Totowa, N.J., 1998), pp. 249–264. Then phage concentrations were normalized to yield a maximal ELISA signal of 0.2–0.4 for each mutant (Lowman, in Cabilly, S. (ed.), supra). Threefold serial dilutions of soluble competitor were prepared on non-absorbent microtiter plates (Nunc, F, 96 wells) with binding buffer (0.5% TWEEN™ 20/PBS) containing phage at the previously-determined concentrations. The dilution range of competitor protein extended over six orders of magnitude, starting at 5 µM for IGFBP-1 and 500 nM for IGFBP-3.

T2 sequence (P17936 28-291): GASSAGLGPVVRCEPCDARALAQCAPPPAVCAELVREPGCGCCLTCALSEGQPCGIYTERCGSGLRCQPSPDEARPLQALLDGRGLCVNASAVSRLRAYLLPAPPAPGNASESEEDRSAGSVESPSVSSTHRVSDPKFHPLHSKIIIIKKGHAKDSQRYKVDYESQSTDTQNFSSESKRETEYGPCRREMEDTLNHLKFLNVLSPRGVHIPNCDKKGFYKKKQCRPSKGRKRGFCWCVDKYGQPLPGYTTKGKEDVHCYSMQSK

B1: IGF-I F49A displayed on phage (ligand)
chain: SPETLCGAELVDALQFVCGDRGFYFNKPTGYGSSSRRAPQTGIVDECCARSCDLRRLEMYCAPLKPAKSV
notes: On phage; G1S-A70V template; also called IGF-F49A phage; not shown: Display partner: M13 gene III protein fragment (residues 249-406, mature count) and the junction to it
- relative IC50 [1]: > 100
- relative IC50 [2]: > 100
- ratio of IC50 against G1S-A70V phage [3]: < 4 fold
